Assay results taken from patent publication US20170267766A1 (PIERRE FABRE MEDICAMENT, published 2017).

Columns and labels:
[1] = target: T1, human IGF-1R (native, on cells) (human, UniProt P08069 31-1367); experiment: cell-based or functional assay
[2] = target: T1, human IGF-1R (native, on cells); experiment: FACS titration, MCF-7
Description: (§1) The binding properties of a series of anti-IGF-1R antibodies were evaluated by FACS analyses on the human MCF-7 breast adenocarcinoma cell line (ATCC#HTB-22) using increasing antibody concentrations. For that purpose, cells (1×10⁶ cells/ml) were incubated with anti-IGF-1R antibodies for 20 min. at 4° C. in FACS buffer (PBS, 0.1% BSA, 0.01% NaN₃). They were then washed 3 times and incubated with the appropriate secondary antibody coupled with Alexa 488 for 20 additional minutes at 4° C. in the dark before being washed 3 times in FACS buffer. The binding of anti-IGF-1R antibodies was immediately performed on viable cells which were identified using propidium iodide (that stains dead cells). The maximum of signal intensity obtained with each antibody was designed as Bₘₐₓ and expressed in mean of fluorescence intensity (MFI). The EC₅₀ of binding expressed in molarity (M) was calculated using a nonlinear regression analysis (GraphPad Prims 4.0).

[3] = target: T1, human IGF-1R (native, on cells); experiment: cell-based or functional assay; remark: listed apart in the source
[4] = target: T2, monkey IGF-1R (on COS-7 cells) (African green monkey); experiment: cell-based or functional assay
[5] = target: T1, human IGF-1R (native, on cells); experiment: FACS titration, hIGF-1R transfected cells
Description: Briefly, increasing concentrations of chimeric mAbs were incubated with cells for 20 min at 4° C. in FACS buffer (PBS, 0.1% BSA, 0.01% NaN₃). Cells were then washed 3 times and incubated with the appropriate secondary antibody coupled with Alexa 488 before being incubated for 20 additional minutes at 4° C. in the dark and then washed 3 times in FACS buffer. The binding of anti-IGF-1R antibodies was immediately performed on viable cells which were identified using propidium iodide (that stains dead cells). The binding EC₅₀ expressed in molarity (M) was calculated using a nonlinear regression analysis (GraphPad Prims 4.0).

[6] = target: T3, soluble recombinant Cynomolgus monkey IGF-1R with C-terminal 10-His tag (produced in house) (Cynomolgus monkey); experiment: SPR, common fit of the human and cynomolgus sensorgrams
T3 construct: extracellular domain; also called Cynomolgus IGF-1R ECD; Macaca IGF-1R
Description: (§2) The recognition experiments were run on a Biacore X100 device using a CM5 sensor chip activated by an anti-Tag His antibody (His capture kit GE Healthcare catalogue number 28-9950-56). More than 11000 RU of antibodies are chemically grafted on the carboxymethyldextan matrix using the amine kit chemistry. The experiments were carried out at 25° C. with a flow rate of 30 μl/min using the HBS-EP buffer (GE Healthcare) as the running and sample dilution buffer.
(§3) Solution of a second antibody is either injected in the same conditions on both flowcells or only on the second flowcell. […] At the end of the fifth injection the running buffer was passed in order to define the dissociation rate. The surface was then regenerated with an injection of a 10 mM Glycine, HCl pH 1.5 buffer during 30s.
(§4) The resulting sensorgrams were analysed using the Biaevaluation software with a 1:1 model. […] The quality of the fitting was assessed by a Chi2/Rmax ratio lower than 0.05 RU.

[7] = target: T1, human IGF-1R (native, on cells); experiment: FACS on MCF-7 cells, 4°C; inset table, axis log [M]
Description: as §1

[8] = target: T2, monkey IGF-1R (on COS-7 cells); experiment: FACS on COS-7 cells, 4°C; inset table, axis log [M]
Description: In order to evaluate the binding of anti-IGF-1R antibodies on monkey IGF-1R, the binding of both murine and chimeric anti-hIGF-1R antibodies was evaluated by FACS analyses on COS-7 cell line using increasing antibody concentrations. Cells (1×10⁶ cells/ml) were incubated with anti-IGF-1R antibodies for 20 minutes at 4° C. in FACS buffer (PBS, 0.1% BSA, 0.01% NaN₃). Then, cells were washed 3 times and incubated with the appropriate secondary antibody coupled with Alexa 488 before being incubated for 20 additional minutes at 4° C. in the dark and finally washed 3 times in FACS buffer. The binding of anti-IGF-1R antibodies was immediately evaluated on viable cells identified using propidium iodide (that stains dead cells). The binding EC₅₀ expressed in molarity (M) was calculated using a nonlinear regression analysis (GraphPad Prims 4.0).

[9] = target: T3, soluble recombinant Cynomolgus monkey …; experiment: SPR Biacore X100, single cycle kinetics, His-captured IGF-1R ~160 RU, 1:1 model
Description: as §2, §3, §4

[10] = target: T4, chimerical h/m IGF-1R construct C2 (human/mouse chimera, UniProt Q60751 31-937 (mouse entry)); experiment: SPR (Biacore X100), ratio of IGF-1R binding level to c208F2 capture level, supernatants diluted 10 times
T4 construct: soluble form, supernatant

[11] = target: T5, chimerical h/m IGF-1R construct C7 (human/mouse chimera, UniProt P08069 31-932, limits assumed); experiment: as above
T5 construct: 17 mouse specific residues

T4 sequence (Q60751 other isoform, or with tags, fused parts or gaps mutant limits assumed): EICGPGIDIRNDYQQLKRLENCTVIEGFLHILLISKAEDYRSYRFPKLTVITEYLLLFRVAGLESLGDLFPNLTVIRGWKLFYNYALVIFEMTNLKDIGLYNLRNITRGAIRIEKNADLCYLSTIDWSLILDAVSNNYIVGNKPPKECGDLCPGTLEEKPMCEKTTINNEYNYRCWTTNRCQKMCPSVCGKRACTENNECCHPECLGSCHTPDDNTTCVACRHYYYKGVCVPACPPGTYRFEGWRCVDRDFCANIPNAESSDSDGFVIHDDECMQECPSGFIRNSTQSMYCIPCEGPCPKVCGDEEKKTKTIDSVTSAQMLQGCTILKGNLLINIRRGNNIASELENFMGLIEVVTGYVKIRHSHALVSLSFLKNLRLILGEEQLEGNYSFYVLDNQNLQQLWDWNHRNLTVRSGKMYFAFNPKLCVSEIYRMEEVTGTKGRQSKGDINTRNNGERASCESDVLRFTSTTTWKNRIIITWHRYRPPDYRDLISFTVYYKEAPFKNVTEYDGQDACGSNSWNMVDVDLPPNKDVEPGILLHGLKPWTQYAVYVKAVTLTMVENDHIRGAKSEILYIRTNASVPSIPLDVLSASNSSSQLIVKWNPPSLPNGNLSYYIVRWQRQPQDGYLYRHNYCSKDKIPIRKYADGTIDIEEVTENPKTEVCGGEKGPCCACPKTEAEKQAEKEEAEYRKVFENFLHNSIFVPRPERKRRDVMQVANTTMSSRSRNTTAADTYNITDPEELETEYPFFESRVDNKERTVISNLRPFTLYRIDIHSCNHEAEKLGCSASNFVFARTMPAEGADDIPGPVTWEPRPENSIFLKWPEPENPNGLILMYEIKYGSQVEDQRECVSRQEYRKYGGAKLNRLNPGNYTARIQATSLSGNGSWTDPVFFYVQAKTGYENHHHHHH

- hIGF-1R phosphorylation, % of that induced by IGF-1 (MCF-7, Ab 10 µg/ml) [1]: < 20%
- Bmax [2]: 981 MFI
- EC50 [2]: 0.67 nM
- % Internalization (MCF-7, 10 µg/ml, 4 h) [3]: 83%
- ΔMFI [3]: 288 MFI
- % internalisation [4]: 67%
- ΔMFI [4]: 52 MFI
- Bmax [5]: 2010 MFI
- EC50 [5]: 0.32 nM
- Kd [6]: 0.22 nM
- EC50 [7]: 0.532 nM
- EC50 [8]: 0.657 nM
- Kd [9]: 0.17 nM
- binding result [10]: no binding
- binding result [11]: binds
B1: c208F2 (antibody, human IgG1, kappa, V domains shown)
VH: QVQLQQSGPELVKPGASVKMSCKASGYTFTSYYIYWVKQRPGQGLEWLGWIWPGDGSTKYNEKFKDKTTLTADKSSNTAYMFLSSLTSEDSAVYFCASPMITPNYAMDYWGQGASVTVSS
VL: DIQMTQTTSSLSASLGDRVTISCRASQDISKYLNWYQQQPDGTIKLLIYYTSRLHSGVPSRFSGRGSGTDYSLTISNVEQEDIATYFCQQGSTLPYTFGGGTKLEIKR
notes: group G2; also called chimeric 208F2
